Assay results as given in patent publication US20210188980A1 (SHANGHAI EPIMAB BIOTHERAPEUTICS, published 2021).
One block for each binder: values may come before it.

What was measured:
[1] = biological target: T1, human LAG-3 expressed on cells (human, UniProt P18627 23-525); experiment: cell-based or functional assay
T1 sequence (looked up): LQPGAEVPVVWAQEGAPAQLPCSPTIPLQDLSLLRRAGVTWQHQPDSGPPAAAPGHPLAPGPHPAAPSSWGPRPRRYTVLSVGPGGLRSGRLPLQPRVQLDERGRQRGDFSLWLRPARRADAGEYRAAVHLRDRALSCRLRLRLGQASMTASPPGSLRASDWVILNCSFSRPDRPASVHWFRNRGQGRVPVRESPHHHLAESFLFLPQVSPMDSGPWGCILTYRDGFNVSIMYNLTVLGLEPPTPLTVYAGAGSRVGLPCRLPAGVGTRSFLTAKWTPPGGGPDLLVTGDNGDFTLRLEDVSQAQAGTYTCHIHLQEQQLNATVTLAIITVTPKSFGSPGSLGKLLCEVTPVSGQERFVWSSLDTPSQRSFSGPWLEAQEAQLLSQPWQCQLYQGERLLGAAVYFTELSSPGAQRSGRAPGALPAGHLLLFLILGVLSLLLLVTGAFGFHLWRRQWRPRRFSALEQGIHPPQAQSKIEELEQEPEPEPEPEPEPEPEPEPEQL

[2] = biological target: T2, human PD-1 expressed on cells (human, UniProt Q15116 25-288); experiment: cell-based or functional assay
T2 sequence (Q15116 25-288): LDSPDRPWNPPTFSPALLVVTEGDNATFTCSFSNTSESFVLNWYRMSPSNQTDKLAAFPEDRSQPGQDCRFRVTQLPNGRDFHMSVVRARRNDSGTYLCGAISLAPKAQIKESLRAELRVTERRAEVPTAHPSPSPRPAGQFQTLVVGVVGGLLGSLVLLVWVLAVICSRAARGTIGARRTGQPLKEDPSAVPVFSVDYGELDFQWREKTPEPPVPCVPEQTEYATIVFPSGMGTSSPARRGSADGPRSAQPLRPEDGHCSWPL

[3] = biological target: T3, recombinant human LAG-3-his protein (Novoprotein) (human, UniProt P18627 23-450); experiment: BLI Octet, Ab on AHC sensor, huLAG-3-his; test group 2
T3 construct: Bought; also called huLAG-3; not shown: His tag
T3 sequence (looked up): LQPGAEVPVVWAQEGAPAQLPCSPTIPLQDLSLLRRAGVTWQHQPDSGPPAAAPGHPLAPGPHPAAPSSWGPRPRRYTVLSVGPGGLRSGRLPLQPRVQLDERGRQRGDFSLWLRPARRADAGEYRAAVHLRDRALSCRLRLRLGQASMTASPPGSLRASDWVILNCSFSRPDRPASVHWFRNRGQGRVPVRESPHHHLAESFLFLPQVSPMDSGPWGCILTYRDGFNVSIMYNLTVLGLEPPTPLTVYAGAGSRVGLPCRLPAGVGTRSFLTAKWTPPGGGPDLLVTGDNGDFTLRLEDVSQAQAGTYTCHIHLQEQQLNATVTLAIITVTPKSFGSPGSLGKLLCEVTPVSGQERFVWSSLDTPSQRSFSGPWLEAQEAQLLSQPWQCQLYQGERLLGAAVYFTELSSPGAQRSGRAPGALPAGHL
Experimental: All 9 humanized antibodies (Table 25) and a chimeric antibody having the parental murine VH and VL domains (mAb747c) were ranked by dissociation rate constant (koff). Briefly, antibodies were characterized for affinities and binding kinetics by Octet RED96 biolayer interferometry (Pall FortéBio LLC). Antibodies were captured by Anti-HIgG Fc Capture (AHC) Biosensors (Pall) at a concentration of 100 nM for 30 seconds. Sensors were then dipped into running buffer (1× pH7.2 PBS, 0.05% Tween 20, 0.1% BSA) for 60 seconds to check baseline. Binding was measured by dipping sensors into a single concentration of recombinant human LAG-3-his protein (Novoprotein). Dissociation was followed by dipping sensors into running buffer for 1200 seconds. The association and dissociation curves were fitted to a 1:1 Langmuir binding model using FortéBio Data Analysis software (Pall).
All 13 humanized antibodies (Table 39) and chimeric anti-LAG-3 antibody mAb747c having the parental murine VH and VL domains were ranked by dissociation rate constant (koff) in the same manner described in Example 9.1 supra. In each test group, the off-rates of antibodies were able to be compared with that of mAb747c. The off-rate ratios were calculated by the off-rate of antibody to that of mAb747c of its group and were compared all together. The lower the ratio was, the higher was the affinity of the antibody.

[4] = biological target: T1, human LAG-3 expressed on cells; experiment: flow cytometry, biotinylated antibody + FITC-streptavidin, CD3 T cells; panel 'PBMC stimulation for 72h, untreated group' (anti-CD3 plus anti-CD28)
Experimental: (§1) To further evaluate the cell surface binding ability of FIT107-1-7b-1, the parental antibodies HumAb713-7, HumAb747V-67, and the bispecific FIT-Ig FIT107-1-7b-1 were biotinylated with biotin reagent (Sigma, Cat. No. S3259). For PBMC without stimulation, PBMCs were re-suspended at 5×10⁶ cells/mi. For PD-1 antibody (HumAb713-7) or LAG-3 antibody (HumAb747V-67) testing, 100 μg/ml of antibody were added and the reaction mixture allowed to incubate at 37° C. for 40 minutes separately, followed by two washes with FACS buffer. Then 100 μl, 5×10⁵ PBMC/well (untreated group, anti-PD-1 antibody treated group and anti-LAG-3 antibody treated group) were seeded into wells of 96-well plate. Biotinylated HumAb713-7, HumAb747V-67 and FIT107-1-7b-1 were added and incubated at 37° C. for 40 minutes (final working concentration starting from 100 nM with 3-fold serial dilution) followed by washing with FACS buffer twice. FITC-streptavidin and BV421-anti human-CD3 antibody were added and the assay plate incubated at 4° C. for 30 minutes, followed by washing with FACS buffer twice. The plate was analyzed with a Beckman Coulter CytoFlex flow cytometer, PBMC stimulation groups were stimulated with anti-CD3 plus anti-CD28 antibody for 72 hours, to induce PD-1 and LAG-3 expression on T cells. […]

[5] = biological target: T1, human LAG-3 expressed on cells; experiment: flow cytometry, biotinylated antibody + FITC-streptavidin, CD3 T cells; panel 'PBMC stimulation for 72h, PD1 antibody treated group' (cells pre-treated with unlabelled HumAb713-7)
Experimental: as §1

[6] = biological target: T1, human LAG-3 expressed on cells; experiment: flow cytometry, biotinylated FIT-Ig + FITC-streptavidin, CD3 T cells; panel 'PBMC stimulation for 72h, PD1 antibody treated group'; PD-1 pre-blocked with unlabelled HumAb713-7, so the signal is laid to LAG-3
Experimental: as §1

Cyno LAG-3-His = Cyno LAG-3-His (cynomolgus); experiment: BLI Octet, FIT-Ig captured, antigen analyte
Cyno PD-1-His = Cyno PD-1-His (cynomolgus, UniProt B0LAJ3 25-170); experiment: BLI Octet, FIT-Ig captured, antigen analyte
Sequence of Cyno PD-1-His (B0LAJ3 entry or part of it limits assumed): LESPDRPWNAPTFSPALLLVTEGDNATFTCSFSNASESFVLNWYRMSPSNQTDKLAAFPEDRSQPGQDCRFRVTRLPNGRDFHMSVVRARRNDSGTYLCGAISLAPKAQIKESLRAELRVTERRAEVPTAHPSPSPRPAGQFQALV

human PD-1-His protein [7] = biological target: T4, human PD-1-His protein (human, UniProt Q15116 25-167, limits assumed); experiment: BLI Octet, FIT-Ig captured, antigen analyte
T4 construct: also called huPD-1; not shown: His tag
T4 sequence (Q15116 25-167 limits assumed): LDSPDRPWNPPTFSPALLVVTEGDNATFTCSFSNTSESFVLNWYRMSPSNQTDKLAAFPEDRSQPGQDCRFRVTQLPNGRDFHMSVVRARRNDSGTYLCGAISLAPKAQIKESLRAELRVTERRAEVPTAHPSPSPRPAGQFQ

[8] = biological target: T3, recombinant human LAG-3-his protein …; experiment: BLI Octet, FIT-Ig captured, antigen analyte
[9] = biological target: T5, human PD-1 ECD/Fc fusion protein (human); experiment: SPR Biacore, HuPD-1 ECD/Fc on chip, Ab analyte
T5 construct: also called huPD-1/Fc; HuPD-1 ECD/Fc
T5 sequence (chain, as listed by the source limits assumed): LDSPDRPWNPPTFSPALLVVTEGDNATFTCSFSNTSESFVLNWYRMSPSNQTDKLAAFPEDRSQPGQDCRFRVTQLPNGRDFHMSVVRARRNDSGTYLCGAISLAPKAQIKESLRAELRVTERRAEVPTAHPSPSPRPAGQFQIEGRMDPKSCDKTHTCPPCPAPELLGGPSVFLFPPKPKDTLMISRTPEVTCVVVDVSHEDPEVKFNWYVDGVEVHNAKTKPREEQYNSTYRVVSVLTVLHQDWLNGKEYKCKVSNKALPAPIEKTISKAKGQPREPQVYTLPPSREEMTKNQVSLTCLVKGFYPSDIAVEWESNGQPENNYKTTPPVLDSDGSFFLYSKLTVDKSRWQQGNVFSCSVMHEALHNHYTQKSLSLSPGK

[10] = biological target: T5, human PD-1 ECD/Fc fusion protein; experiment: SPR Biacore, HuPD-1 ECD/Fc and HuLAG-3 ECD/Fc both on chip, Ab analyte
human PD-1-His protein [11] = biological target: T4, human PD-1-His protein; experiment: SPR Biacore, Ab captured, huPD-1-His analyte
Experimental: (§2) All 15 humanized antibodies and the chimeric antibody (mAb709c) were characterized by binding ELISA and cell-based RBA. For cell-based RBA, 2×10⁵ cells/well of CHO-K1-huPD1 cells were added to a pre-blocked 96-well round-bottomed plate and after washing, 50 μl antibodies with diluted concentration ranging from 0.064 nM to 200 nM were added to each well. Next, 50 μl of 60 μg/ml biotinylated PD-L1/Fc or biotinylated PD-L2/Fc protein were added. After gentle mixing and incubation at 4° C., the cells were washed and stained by Alexa Fluor™ 488 streptavidin solution (1:1000, ThermoFisher Scientific; Cat. No. S32354). Signals were readout by FACS and curves were fitted by GraphPad software. […] The association and dissociation rate constants, k (M⁻¹ s⁻¹) and koff(s⁻¹), respectively, were determined by making kinetic binding measurements at five different concentrations of human PD-1-His protein at a continuous flow rate of 30 μl/min. The equilibrium dissociation constant KD (M) of the reaction between antibodies and related target proteins was calculated from the kinetic rate constants using the formula KD=koff/kₒₙ. HumAb709-8 had minimal back-mutation(s) while maintaining to the greatest extent the affinity of the parental variable domains on chimeric mAb709c.

[12] = biological target: T2, human PD-1 expressed on cells; experiment: cell RBA FACS, CHO-K1-huPD1; competitor biotin-PD-L1/Fc
Experimental: as §2

[13] = biological target: T2, human PD-1 expressed on cells; experiment: cell RBA FACS, CHO-K1-huPD1; competitor biotin-PD-L2/Fc
Experimental: as §2

[14] = biological target: T6, human LAG-3 ECD/Fc fusion protein (human); experiment: SPR Biacore, HuPD-1 ECD/Fc and HuLAG-3 ECD/Fc both on chip, Ab analyte
T6 construct: also called HuLAG-3 ECD/Fc

[15] = biological target: T6, human LAG-3 ECD/Fc fusion protein; experiment: SPR Biacore, HuLAG-3 ECD/Fc on chip, Ab analyte

B1: FIT107-1-2a (bispecific antibody, human IgG1, kappa, L234A L235A)
chain 1: not shown
chain 2: EVKLVESGGGLVKPGGSLKLSCAASGFTFSFYTMSWVRQTPEKRLEWVATISGGGRDTYYPDSVKGRFTISRDNAKNTLYLHMSSLRSEDTALYYCAGQGGNYLFAYWGQGTLVTVSAASTKGPSVFPLAPSSKSTSGGTAALGCLVKDYFPEPVTVSWNSGALTSGVHTFPAVLQSSGLYSLSSVVTVPSSSLGTQTYICNVNHKPSNTKVDKKVEPKSC
chain 3: DIQMTQSPSSLSASLGERVSLNCRASQEISGYLSWLQQKSDGTIKRLIYAASTLDSGVPKRFSGSRSGSDYSLTISSLESEDFADYYCLQYASYPLTFGAGTKLELKRTVAAPSVFIFPPSDEQLKSGTASVVCLLNNFYPREAKVQWKVDNALQSGNSQESVTEQDSKDSTYSLSSTLTLSKADYEKHKVYACEVTHQGLSSPVTKSFNRGEC
MLR, IFN-γ production, EC50 [1]: 508 pM
MLR, IFN-γ production, EC50 [2]: 508 pM

B3: FIT107-1-7b-1 (bispecific antibody, human IgG1, kappa, L234A L235A)
chain 1: not shown
chain 2: EVQLVQSGAEVKKPGATVKLSCTASGFNIKDDYMHWVKQRPEQGLDWIGWIVPENANTVYASKFQGKATITADTSTNTAYLELSSLRSEDTAVYYCTVYGDYWGQGTTVTVSSASTKGPSVFPLAPSSKSTSGGTAALGCLVKDYFPEPVTVSWNSGALTSGVHTFPAVLQSSGLYSLSSVVTVPSSSLGTQTYICNVNHKPSNTKVDKKVEPKSC
chain 3: not shown
notes: FIT-Ig hexamer; outer Fab anti-LAG-3 (HumAb747V-67 with VH G55A), inner Fab anti-PD-1 (HumAb713-7); also called FIT107-7b-1
EC50 (read off the curve) [6]: ~1000 pM
Kd (Cyno LAG-3-His): 123 pM
koff (Cyno LAG-3-His): 6.36e-05 s⁻¹
kon (Cyno LAG-3-His): 519000 M⁻¹ s⁻¹
Kd (Cyno PD-1-His): 3610 pM
koff (Cyno PD-1-His): 0.000775 s⁻¹
kon (Cyno PD-1-His): 215000 M⁻¹ s⁻¹
Kd (human PD-1-His protein [7]): 10400 pM
koff (human PD-1-His protein [7]): 0.000935 s⁻¹
kon (human PD-1-His protein [7]): 89600 M⁻¹ s⁻¹
Kd [8]: 1220 pM
koff [8]: 0.000243 s⁻¹
kon [8]: 200000 M⁻¹ s⁻¹

B4: mAb709c (antibody, V domains shown)
VH: EVKLVESGGGLVKPGGSLKLSCAASGFTFSFYTMSWVRQTPEKRLEWVATISGGGRDTYYPDSVKGRFTISRDNAKNTLYLHMSSLRSEDTALYYCAGQGGNYLFAYWGQGTLVTVSA
VL: DIVMTQSHKFMSTSVGDSVTITCKASQDVNTVVAWYQQKPGQSLKVLISWASTRHTGVPARFTGSGSGTDYTLTISSVQAEDLALYYCQQHYTTPYTFGGGTQLEIK
notes: also called HumAb709c
Kd [9]: 35 pM
koff [9]: 8.82e-06 s⁻¹
kon [9]: 252000 M⁻¹ s⁻¹
Kd [10]: 33.7 pM
koff [10]: 9.72e-06 s⁻¹
kon [10]: 288000 M⁻¹ s⁻¹
Kd (human PD-1-His protein [11]): 567 pM
koff (human PD-1-His protein [11]): 6.88e-05 s⁻¹
kon (human PD-1-His protein [11]): 121000 M⁻¹ s⁻¹
IC50 [12]: 620 pM
IC50 [13]: 560 pM

Second part, the binder after the results:

koff [3]: 0.000319 s⁻¹
off-rate ratio to that of mAb747c [3]: 47%
EC50 (read off the curve) [4]: ~1000 pM
EC50 (read off the curve) [5]: 1000 to 2000 pM
B2: HumAb747V-67 (antibody, human IgG1, V domains shown)
VH: EVQLVQSGAEVKKPGATVKLSCTASGFNIKDDYMHWVKQRPEQGLDWIGWIVPENGNTVYASKFQGKATITADTSTNTAYLELSSLRSEDTAVYYCTVYGDYWGQGTTVTVSS
VL: DIQMTQSPSSLSASVGDRVTITCRASQEISGYLSWLQQKPGGAIKRLIYAASALDSGVPSRFSGSRSGSDYTLTISSLQPEDFADYYCLQYASYPLTFGQGTKLELK
notes: engineered HumAb747-60 variant; human IgG1/kappa constant domains

Kd [14]: 16200 pM
koff [14]: 0.000154 s⁻¹
kon [14]: 9510 M⁻¹ s⁻¹
Kd [15]: 32500 pM
koff [15]: 0.000181 s⁻¹
kon [15]: 5580 M⁻¹ s⁻¹
B5: mAb746c (antibody, V domains shown)
VH: EVQLQQSGAELVRPGASVKLSCTASDFNIKDDYMHWVKQRPEQGLDWIGWIVPENGNTEYASKFQGKATITADTSSNTAYLQLSSLTSEDTAVYYCTVYGDYWGQGTTLTVSS
VL: DIQMTQSPSSLSASLGERVSLNCRASQEISGYLSWLQQKSDGTIKRLIYAASTLDSGVPKRFSGSRSGSDYSLTISSLESEDFADYYCLQYASYPLTFGAGTKLELK
